In PMC5818487:

Columns and labels:
Assay in all cases: SPR; Biacore T200; ICAM-1-Fc proteins captured on Protein A on a CM5 chip (1108 ± 108 RU); DBLβ domains flowed as twofold dilution series 1000-7.81 nM at 30 µl/min, 240 s association, 600 s dissociation; 10 mM HEPES pH 7.2, 250 mM NaCl, 0.05% Tween-20; global 1:1 model; 1 mg/ml ssDNA added to BC12a DBLβ
[1] = molecular target: ICAM-1 domains 1-5 Fc fusion protein (reference, wild type) (UniProt P05362)
[2] = molecular target: ICAM-1 Kilifi (K29M) Fc fusion protein (UniProt P05362)
[3] = molecular target: ICAM-1 L42A mutant Fc fusion protein (UniProt P05362)
[4] = molecular target: ICAM-1 L44A mutant Fc fusion protein (UniProt P05362)
[5] = molecular target: ICAM-1 S22A mutant Fc fusion protein (UniProt P05362)

**Q.** How did the Kd [1] turn out when “BC12a DBLβ domain (PfEMP1 of the dominantly expressed var gene of isolate BC12) (domain or fragment)” was run?
**A.** The Kd was 197 nM.

**Q.** And the koff [1]?
**A.** Its koff is 0.000944 s⁻¹.

**Q.** What about the kon [1] of the same substance?
**A.** Its kon is 4800 M⁻¹ s⁻¹.

**Q.** For “IT4var13 DBLβ domain (from UniProt A3R6S0 1-3274) (domain or fragment)”, which % ICAM-1^D1D5 binding [2] is on record?
**A.** Its % ICAM-1^D1D5 binding is 8.9%.

**Q.** And the % ICAM-1^D1D5 binding [3]?
**A.** Its % ICAM-1^D1D5 binding is 3.1%.

**Q.** And the % ICAM-1^D1D5 binding [4]?
**A.** Its % ICAM-1^D1D5 binding is 10%.

**Q.** What about the % ICAM-1^D1D5 binding [5] of the same substance?
**A.** Its % ICAM-1^D1D5 binding is 94.5%.

**Q.** What about the Kd [5] of the same substance?
**A.** The Kd was 9.82 nM.

**Q.** And the Kd [1]?
**A.** Its Kd is 3.45 nM.

**Q.** And the koff [1]?
**A.** Its koff is 0.000125 s⁻¹.

**Q.** And the kon [1]?
**A.** Its kon is 36100 M⁻¹ s⁻¹.

**Q.** Which results are given for “J1a DBLβ domain (PfEMP1 of the dominantly expressed var gene of isolate J1) (domain or fragment)”?
**A.** % ICAM-1^D1D5 binding [2]: 5.4%; % ICAM-1^D1D5 binding [3]: 1.4%; % ICAM-1^D1D5 binding [4]: 2.7%; % ICAM-1^D1D5 binding [5]: 10.9%; Kd [1]: 51.7 nM; koff [1]: 0.00153 s⁻¹; kon [1]: 29600 M⁻¹ s⁻¹
